The supplement of paper PMC10126150
± gives the standard deviation of the averaged measurements.

test system: ATP; assay: switch fluorescence ratio, 500 uM ATP over buffer (Cy3 cluster intensity, sum of 5 cycles each) (fold (ratio)); higher = stronger signal-on switching upon ATP binding; sequences stand for … in TCGTCGGCAGCGTCAGATGTGTATAAGAGACAGTTTTTTTTTTTTTTTTTTTTTTTTT…TC; details: aptamer strand: ATP DNA aptamer (quencher-CACCTGGGGGAGTATTGCGGAGGAAGG + anchor), 100 nM annealed; ATP concentration: 500 uM
In short: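 Switching-strand clusters labelled with Cy3 on a modified Illumina MiSeq flow-cell were annealed to 100 nM quencher-labelled ATP aptamer, imaged in selection buffer, and re-imaged after 15 min with 500 uM ATP at 22 °C. This was done over five cycles with NaOH stripping and re-annealing in between. The fluorescence ratio is summed target-cycle over summed buffer-cycle Cy3 intensity per cluster, averaged per switch-domain sequence, excluding clusters outside 100-1000 RFU.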
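Note: ATP exposure 15 min at 22 °C before imaging.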

Sequence | switch fluorescence ratio
TTTAGTTGAT | 1.01 ± 0.031
GCAGTAAAAC | 1.694 ± 0.013
ATAGTAACAC | 1.06 ± 0.038
TGGTAATAGT | 1.02 ± 0.038
TTTACTTTCC | 1.56 ± 0.16
GGGGCCAGGG | 1.04 ± 0.054
AATGTAAGTT | 0.975 ± 0.025
TTGTGGAGCT | 0.999 ± 0.016
AATTATAATG | 1.034 ± 0.0047
TTATTCGGGA | 1.02 ± 0.031
TGGCTCCATT | 1.01 ± 0.034
TTATAGGTAT | 0.9803 ± 0.0054
GGGAAGAACT | 1.06 ± 0.014
AGGTTGGGTA | 0.979 ± 0.015
TTGCGATGGT | 1.02 ± 0.012
CGGTTGACTT | 0.992 ± 0.057
TAGACTGGTT | 0.992 ± 0.018
GGTTGTGCGA | 0.98322 ± 0.00037
GAGGTTTGTA | 0.974 ± 0.013
TGAGTTGGAC | 1.08 ± 0.067
AATTTTTGTT | 1 ± 0.029
TTCCTCGCTT | 2.75 ± 1.6
AGTGGCACCG | 1.01 ± 0.015

Sequence | switch fluorescence ratio
TTGAGGGTGA | 0.988 ± 0.016
GGGTTAGTGG | 0.976 ± 0.032
AAGTTGAGTG | 0.9472 ± 0.0088
CGAGTTTGAC | 0.977 ± 0.019
AATTATGTAA | 0.988 ± 0.036
TTGATTGGCG | 1.07 ± 0.058
GAGTGTTTAG | 1.01 ± 0.016
TAGGAGGGCT | 0.985 ± 0.049
AGGAGGGCTG | 0.984 ± 0.011
GGCCGGACAT | 0.9674 ± 0.0089
AATGAAAGGG | 0.988 ± 0.025
GCAAGTTGAT | 0.96591 ± 0.00067
TCACGGGTGC | 1.91 ± 0.19
GGGAATCTGC | 1.01 ± 0.026
AAGTTGTCAA | 1.011 ± 0.0052
CATGGCCACC | 1.015 ± 0.0078
TTGCATTTTC | 1.09 ± 0.11
AGTATAACGA | 1.06 ± 0.016
TTCAGGGTAT | 1.01 ± 0.037
TTTAAAGCCC | 1.01 ± 0.043
GGATCTAGAA | 0.9644 ± 0.008
TCGTAGGTAA | 1.1 ± 0.12
TGTCTAGTTA | 0.972 ± 0.0041

Sequence | switch fluorescence ratio
AGTAGGTCTG | 1.04 ± 0.046
GATTCAGGGT | 1 ± 0.024
GCCACACAAT | 1.022 ± 0.0014
TTATTTGGGG | 1.01 ± 0.056
TTAGGGAACA | 1.16 ± 0.16
GACTCAGTTG | 0.9947 ± 0.0084
GAAGTGTGTG | 1 ± 0.021
GCGTAAGGTG | 1.1 ± 0.084
CTGCTAGGTA | 0.9975 ± 0.0027
GTATGCTAAC | 1 ± 0.043
ATTAAACGAG | 1.01 ± 0.031
AAGGATTCGC | 1 ± 0.072
CAATGTGGAG | 0.992 ± 0.055
CAGTTTGTGG | 0.9917 ± 0.0018
TGGGGGACTT | 0.99 ± 0.039
CGGCAGGATG | 1.01 ± 0.024
TGCAAAGGGG | 1.01 ± 0.029
TTAGGGCTCG | 1.01 ± 0.057
TAGGTAGATG | 1.02 ± 0.018
GCGTTGTTGT | 0.981 ± 0.02
TGCTTTTGGT | 0.988 ± 0.022
GGGGTGATCT | 1.02 ± 0.034
TGGTTTACTA | 1.009 ± 0.0096

Sequence | switch fluorescence ratio
TTCATTGAGT | 1.028 ± 0.0048
GGTGTGCATC | 1 ± 0.018
TTTGTGTTGG | 0.993 ± 0.027
TTTTTTATAC | 1.02 ± 0.051
GATCCAGAAT | 0.9977 ± 0.0074
TGTAGGAGTG | 1.25 ± 0.36
TGTTGTTGTA | 1.015 ± 0.0081
TGGTAAATGG | 1.01 ± 0.019
CTAGGGGTAC | 1.16 ± 0.17
AGGTGAAGTT | 1.02 ± 0.062
CGGAAATTGG | 0.982 ± 0.012
AGGGCAAAAG | 1.03 ± 0.006
ATGCTAATTA | 1.02 ± 0.024
AGGTGGCGTG | 0.944 ± 0.022
TACAGGTTGT | 1.21 ± 0.19
CTGGGGTAAT | 1.028 ± 0.0095
CCAAAAGTAT | 1.03 ± 0.081
GGTCGCCGGG | 0.976 ± 0.081
GGCCCCGGGT | 1.18 ± 0.057
GACTTAGAAT | 1 ± 0.0026
TTTAACGTTG | 0.989 ± 0.04
TTTATCGGTG | 0.995 ± 0.035
CTTAGTTAGT | 0.993 ± 0.01

Sequence | switch fluorescence ratio
GAGGGTCTTT | 0.969 ± 0.025
AGAGACCTCA | 1.045 ± 0.0027
CAGGGGTGGC | 0.9529 ± 0.0021
ACGGAGCCTT | 1.32 ± 0.036
TTTGTAGGGG | 0.981 ± 0.016
GGTAATAGAG | 0.987 ± 0.05
CAAAACTTGC | 1.18 ± 0.032
GTGTGGGGGT | 0.98 ± 0.019
AAATAAAAAC | 1.08 ± 0.044
AGCCTGCCCG | 1.05 ± 0.037
GCGTATCTTA | 0.968 ± 0.014
ACTAATAAGT | 0.999 ± 0.028
GTGCCCGGAT | 0.9846 ± 0.0065
TCCGGGATGG | 1.33 ± 0.39
TAGTTGTTCC | 1.07 ± 0.07
TTGGAGGGG | 0.988 ± 0.025
TTATTTCATG | 0.984 ± 0.022
AATTATCGGC | 0.998 ± 0.049
CGGTACGTTT | 1.007 ± 0.0015
TTTTAAATGT | 1.04 ± 0.029
TGGGTTAAAT | 0.995 ± 0.023
TAAAAATAGG | 1 ± 0.022
CTTGGCGGGC | 1.01 ± 0.04

Sequence | switch fluorescence ratio
ATTGTTTGAG | 0.982 ± 0.0032
TGATTTAGAG | 0.998 ± 0.013
TTGAGGCGGA | 1.04 ± 0.033
CACTGATCCT | 1.032 ± 0.0032
GTCGCGGTTG | 1.03 ± 0.0015
GGTTTCATGG | 0.998 ± 0.012
AACCAGGATT | 0.9714 ± 0.0074
AGACGGGGCT | 0.975 ± 0.017
GTTCGGGGGG | 1 ± 0.032
AGCAGCGGGC | 0.997 ± 0.043
GTGGTTGGAG | 0.9865 ± 0.0072
GCTCACACGG | 1.62 ± 0.023
CGAAGAGGCG | 0.997 ± 0.052
GTTTTTACGT | 1.12 ± 0.14
GTTTGGCATG | 1.003 ± 0.0051
CGGTGGTTGT | 0.9948 ± 0.0052
CGGTCTCATC | 1.02 ± 0.014
TAATGAATTC | 1.003 ± 0.0081
TTCCCATTTT | 0.995 ± 0.013
GGTTTAGGAA | 1 ± 0.028
GGATGGGGAG | 0.971 ± 0.02
CGAAAATAAT | 0.9817 ± 0.0022
TGCATGGGTG | 1.06 ± 0.039

Sequence | switch fluorescence ratio
ACCACGTGAC | 1.51 ± 0.035
AGATTTTGGT | 0.9954 ± 0.0026
GGGTATGCGA | 0.984 ± 0.015
TGCACGGGGG | 1.03 ± 0.013
TGTTTGGGTA | 1 ± 0.07
TTTAGGCCGT | 1.05 ± 0.066
TTAGTCTGAT | 1 ± 0.038
AGATCTGCAT | 1.11 ± 0.019
CGATATTGAT | 1.03 ± 0.035
TTGGGGCCAA | 1.01 ± 0.051
CCATGTGTG | 1.02 ± 0.024
GGGGTTGTAA | 0.9938 ± 0.0056
TGAGTCCATT | 0.985 ± 0.018
ATTTGGTGCA | 1.01 ± 0.056
CGGTAAAAAG | 1.01 ± 0.017
TATGTGAGGG | 0.988 ± 0.033
CCTAGGAGCC | 1.05 ± 0.026
CATGGGTGTG | 0.993 ± 0.042
AGGAGGGTTT | 0.999 ± 0.032
